# Results as given in publication PMC3538076.
# Several values for one entry are separate records, joined by “and”; a condition that tells them apart may be missing. Equal entries are not always repeated. Where two headings read alike, the source gives them in different places.
# What was measured:
# [1] = biological target: H3–H4 complex with H3 labeled with Cy3 at Gln-125 (H3 C110A) (Xenopus laevis) (UniProt P84233); experiment: fluorescence polarisation
# [2] = biological target: RbAp48–H3–H4 complex, labeled with Cy3 at Gln-125 on H3 (human | Xenopus laevis) (UniProt Q09028); experiment: fluorescence polarisation
# [3] = biological target: H3–H4 complex with H3 labeled with Cy3 at Gln-125 (H3 C110A) (Xenopus laevis) (UniProt P84233); experiment: fluorescence polarisation; remark: listed apart in the source
# [4] = biological target: gH3–gH4 heterodimer (globular forms of histones H3 and H4) (Xenopus laevis) (UniProt P84233); experiment: SEC
# [5] = biological target: H3–H4 complex with H3 labeled with Cy3 at Leu-65 (H3 C110A) (Xenopus laevis) (UniProt P84233); experiment: fluorescence polarisation
Kd [1],Kd [2],Kd [3],stoichiometry N (ASF1^1-159 : gH3–gH4) [4],Kd [5],Substance
0.27 nM,7.1 nM and 3 nM and 6.8 nM,0.3 nM,1,–,"human ASF1^1-159 (anti-silencing function protein 1, residues 1-159) (from UniProt Q9Y294 1-159) (domain or fragment)"
–,–,–,–,0.61 nM,human retinoblastoma-associated protein RbAp48 (from UniProt Q09028 1-425) (natural protein)
